Eight substances from FireProtDB (doi:10.1021/bi972279a) can be followed below.

The conditions of the data set: Saccharomyces cerevisiae (strain ATCC 204508 / S288c), pH 4.6, Thermal, CD, acetate 100 mM, reversible: yes; for ddG of mutation (higher = less stable) / heat capacity change of unfolding / unfolding free energy: 25 °C.

Cytochrome c isoform 1 P82R, P00044, sequence (P00044 whole entry P82R, canonical isoform): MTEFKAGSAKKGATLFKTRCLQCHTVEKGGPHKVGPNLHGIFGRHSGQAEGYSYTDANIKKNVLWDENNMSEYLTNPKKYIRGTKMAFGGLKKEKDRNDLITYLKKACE
Cytochrome c isoform 1 P82G, P00044, sequence (P00044 whole entry P82G, canonical isoform): as the sequence (P00044 whole entry P82R, canonical isoform) above, with R82G counted along it
Cytochrome c isoform 1 P82V, P00044, sequence (P00044 whole entry P82V, canonical isoform): as the sequence (P00044 whole entry P82R, canonical isoform) above, with R82V counted along it
Cytochrome c isoform 1 P82W, P00044, sequence (P00044 whole entry P82W, canonical isoform): as the sequence (P00044 whole entry P82R, canonical isoform) above, with R82W counted along it
Cytochrome c isoform 1 P82S, P00044, sequence (P00044 whole entry P82S, canonical isoform): as the sequence (P00044 whole entry P82R, canonical isoform) above, with R82S counted along it
Cytochrome c isoform 1 wild type, P00044, sequence (P00044 whole entry, canonical isoform): as the sequence (P00044 whole entry P82R, canonical isoform) above, with R82P counted along it
Cytochrome c isoform 1 P82Y, P00044, sequence (P00044 whole entry P82Y, canonical isoform): as the sequence (P00044 whole entry P82R, canonical isoform) above, with R82Y counted along it
Cytochrome c isoform 1 P82L, P00044, sequence (P00044 whole entry P82L, canonical isoform): as the sequence (P00044 whole entry P82R, canonical isoform) above, with R82L counted along it

Turning to Cytochrome c isoform 1 P82W, P00044, for the setting “structure 1YCC”, the “ddG of mutation (higher = less stable)” value was found to be 2.38 kcal/mol, the “heat capacity change of unfolding” value amounted to 1.37 kcal/mol/K, the unfolding free energy stood at 2.7 kcal/mol and the Tm was 47 °C. For the setting “structure 1YCC”, the “change of melting temperature, mutant - wild type (higher = more stable)” value (“change of melting temperature, mutant” below) is -6.5 °C.
For Cytochrome c isoform 1 P82G, P00044, in that order: 0.78 kcal/mol, 1.37 kcal/mol/K, 4.3 kcal/mol, 48.5 °C and -5 °C.
On to “Cytochrome c isoform 1 wild type, P00044”, for which the “heat capacity change of unfolding” value was determined as 1.37 kcal/mol/K, the unfolding free energy came to 5.08 kcal/mol and the Tm was 53.5 °C.
As to Cytochrome c isoform 1 P82V, P00044, where the note is “structure 1YCC”, the “ddG of mutation (higher = less stable)” value came out at 1.07 kcal/mol, the “heat capacity change of unfolding” value stood at 1.37 kcal/mol/K, the unfolding free energy was 4.01 kcal/mol and the Tm worked out at 48.3 °C. Also, the “change of melting temperature, mutant” value (structure 1YCC) was -5.2 °C.
For Cytochrome c isoform 1 P82L, P00044, for the setting “structure 1YCC”, the Tm was 48.6 °C and the “change of melting temperature, mutant” value was -4.9 °C.
As to Cytochrome c isoform 1 P82S, P00044, where the note is “structure 1YCC”, the “ddG of mutation (higher = less stable)” value amounted to 1.89 kcal/mol, the “heat capacity change of unfolding” value worked out at 1.37 kcal/mol/K, the unfolding free energy amounted to 3.19 kcal/mol and the Tm stood at 47.8 °C. Further, the “change of melting temperature, mutant” value (structure 1YCC) is -5.7 °C.
Cytochrome c isoform 1 P82R, P00044: under “structure 1YCC”, the “ddG of mutation (higher = less stable)” value amounted to 0.97 kcal/mol, the “heat capacity change of unfolding” value came out at 1.37 kcal/mol/K, the unfolding free energy amounted to 4.11 kcal/mol and the midpoint of thermal melting (Tm) was 48.6 °C. Also, for the setting “structure 1YCC”, the “change of melting temperature, mutant” value was -4.9 °C.
The corresponding values for Cytochrome c isoform 1 P82Y, P00044 are 2.07 kcal/mol, 1.37 kcal/mol/K, 3.01 kcal/mol, 46.7 °C and -6.8 °C.
